In US20160272683A1 (Novo Nordisk, published 2016):
Numbered stars: 1 amine (or outer) side, 2 acyl side, 3 side chain; on linkers, the order of the positions; unused ones are H or OH. * marks the point of attachment. C20 diacid = O=C(O)CCCCCCCCCCCCCCCCCCC(=O)*; γGlu = O=C(O)[C@H](CCC(=O)[*:2])N[*:1]; AEEA = NCCOCCOCC(=O)O

T1: human amylin receptor (human calcitonin receptor + human RAMP3) (human) (UniProt P30988)
T1 sequence (looked up) 1: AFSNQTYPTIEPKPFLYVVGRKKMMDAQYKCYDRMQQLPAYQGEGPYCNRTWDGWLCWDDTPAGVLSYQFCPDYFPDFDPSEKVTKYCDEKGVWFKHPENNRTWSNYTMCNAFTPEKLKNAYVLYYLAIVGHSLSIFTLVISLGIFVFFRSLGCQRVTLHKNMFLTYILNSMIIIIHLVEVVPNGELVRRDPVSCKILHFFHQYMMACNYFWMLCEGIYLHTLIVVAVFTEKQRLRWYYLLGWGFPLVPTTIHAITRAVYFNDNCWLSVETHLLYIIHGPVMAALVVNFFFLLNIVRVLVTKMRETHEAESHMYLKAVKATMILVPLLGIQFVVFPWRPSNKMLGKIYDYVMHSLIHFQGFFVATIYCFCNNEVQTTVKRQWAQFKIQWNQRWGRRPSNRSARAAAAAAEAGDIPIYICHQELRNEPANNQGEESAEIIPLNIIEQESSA
T1 sequence (looked up) 2: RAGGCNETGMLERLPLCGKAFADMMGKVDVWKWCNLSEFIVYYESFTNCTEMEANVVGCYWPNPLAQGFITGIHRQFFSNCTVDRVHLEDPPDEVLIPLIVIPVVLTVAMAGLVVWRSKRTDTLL


Each binder was assayed against T1, human amylin receptor (human calcitonin receptor + human RAMP3) (human) (assay: whole-cell competition vs 125I-rat amylin (Assay Va)).

Binder	IC50 [nM]
{C20 diacid-γGlu}-ASELSTAALGRLSAELHELATLPHTETGSGSP-NH2 (SMILES CC(C)C[C@H](NC(=O)[C@H](C)NC(=O)[C@H](C)NC(=O)[C@@H](NC(=O)[C@H](CO)NC(=O)[C@H](CC(C)C)NC(=O)[C@H](CCC(=O)O)NC(=O)[C@H](CO)NC(=O)[C@H](C)NC(=O)CC[C@H](NC(=O)CCCCCCCCCCCCCCCCCCC(=O)O)C(=O)O)[C@@H](C)O)C(=O)NCC(=O)N[C@@H](CCCNC(=N)N)C(=O)N[C@@H](CC(C)C)C(=O)N[C@@H](CO)C(=O)N[C@@H](C)C(=O)N[C@@H](CCC(=O)O)C(=O)N[C@@H](CC(C)C)C(=O)N[C@@H](Cc1c[nH]cn1)C(=O)N[C@@H](CCC(=O)O)C(=O)N[C@@H](CC(C)C)C(=O)N[C@@H](C)C(=O)N[C@H](C(=O)N[C@@H](CC(C)C)C(=O)N1CCC[C@H]1C(=O)N[C@@H](Cc1c[nH]cn1)C(=O)N[C@H](C(=O)N[C@@H](CCC(=O)O)C(=O)N[C@H](C(=O)NCC(=O)N[C@@H](CO)C(=O)NCC(=O)N[C@@H](CO)C(=O)N1CCC[C@H]1C(N)=O)[C@@H](C)O)[C@@H](C)O)[C@@H](C)O) [[N-terminal(C20 diacid-gGlu), des1, 25H, 30S, 31G]mimylin]	0.608
{C20 diacid-γGlu}-ASELSTAALGRLSAELHELATLPRTETGSGSS-NH2 (SMILES CC(C)C[C@H](NC(=O)[C@H](C)NC(=O)[C@H](C)NC(=O)[C@@H](NC(=O)[C@H](CO)NC(=O)[C@H](CC(C)C)NC(=O)[C@H](CCC(=O)O)NC(=O)[C@H](CO)NC(=O)[C@H](C)NC(=O)CC[C@H](NC(=O)CCCCCCCCCCCCCCCCCCC(=O)O)C(=O)O)[C@@H](C)O)C(=O)NCC(=O)N[C@@H](CCCNC(=N)N)C(=O)N[C@@H](CC(C)C)C(=O)N[C@@H](CO)C(=O)N[C@@H](C)C(=O)N[C@@H](CCC(=O)O)C(=O)N[C@@H](CC(C)C)C(=O)N[C@@H](Cc1c[nH]cn1)C(=O)N[C@@H](CCC(=O)O)C(=O)N[C@@H](CC(C)C)C(=O)N[C@@H](C)C(=O)N[C@H](C(=O)N[C@@H](CC(C)C)C(=O)N1CCC[C@H]1C(=O)N[C@@H](CCCNC(=N)N)C(=O)N[C@H](C(=O)N[C@@H](CCC(=O)O)C(=O)N[C@H](C(=O)NCC(=O)N[C@@H](CO)C(=O)NCC(=O)N[C@@H](CO)C(=O)N[C@@H](CO)C(N)=O)[C@@H](C)O)[C@@H](C)O)[C@@H](C)O) [[N-terminal(C20 diacid-gGlu), des1, 30S, 31G, 33S]mimylin]	4.07
{C20 diacid-γGlu}-EASELSTAALGRLSAELHELATYPRTETGSGSP-NH2 (SMILES CC(C)C[C@H](NC(=O)[C@H](C)NC(=O)[C@H](C)NC(=O)[C@@H](NC(=O)[C@H](CO)NC(=O)[C@H](CC(C)C)NC(=O)[C@H](CCC(=O)O)NC(=O)[C@H](CO)NC(=O)[C@H](C)NC(=O)[C@H](CCC(=O)O)NC(=O)CC[C@H](NC(=O)CCCCCCCCCCCCCCCCCCC(=O)O)C(=O)O)[C@@H](C)O)C(=O)NCC(=O)N[C@@H](CCCNC(=N)N)C(=O)N[C@@H](CC(C)C)C(=O)N[C@@H](CO)C(=O)N[C@@H](C)C(=O)N[C@@H](CCC(=O)O)C(=O)N[C@@H](CC(C)C)C(=O)N[C@@H](Cc1c[nH]cn1)C(=O)N[C@@H](CCC(=O)O)C(=O)N[C@@H](CC(C)C)C(=O)N[C@@H](C)C(=O)N[C@H](C(=O)N[C@@H](Cc1ccc(O)cc1)C(=O)N1CCC[C@H]1C(=O)N[C@@H](CCCNC(=N)N)C(=O)N[C@H](C(=O)N[C@@H](CCC(=O)O)C(=O)N[C@H](C(=O)NCC(=O)N[C@@H](CO)C(=O)NCC(=O)N[C@@H](CO)C(=O)N1CCC[C@H]1C(N)=O)[C@@H](C)O)[C@@H](C)O)[C@@H](C)O) [[N-terminal(C20 diacid-gGlu), 23Y, 30S, 31G]mimylin]	1.59
{C20 diacid-γGlu}-ASELSTAALGRLSAELHELATLPRTETGSGSL-NH2 (SMILES CC(C)C[C@H](NC(=O)[C@H](CO)NC(=O)CNC(=O)[C@H](CO)NC(=O)CNC(=O)[C@@H](NC(=O)[C@H](CCC(=O)O)NC(=O)[C@@H](NC(=O)[C@H](CCCNC(=N)N)NC(=O)[C@@H]1CCCN1C(=O)[C@H](CC(C)C)NC(=O)[C@@H](NC(=O)[C@H](C)NC(=O)[C@H](CC(C)C)NC(=O)[C@H](CCC(=O)O)NC(=O)[C@H](Cc1c[nH]cn1)NC(=O)[C@H](CC(C)C)NC(=O)[C@H](CCC(=O)O)NC(=O)[C@H](C)NC(=O)[C@H](CO)NC(=O)[C@H](CC(C)C)NC(=O)[C@H](CCCNC(=N)N)NC(=O)CNC(=O)[C@H](CC(C)C)NC(=O)[C@H](C)NC(=O)[C@H](C)NC(=O)[C@@H](NC(=O)[C@H](CO)NC(=O)[C@H](CC(C)C)NC(=O)[C@H](CCC(=O)O)NC(=O)[C@H](CO)NC(=O)[C@H](C)NC(=O)CC[C@H](NC(=O)CCCCCCCCCCCCCCCCCCC(=O)O)C(=O)O)[C@@H](C)O)[C@@H](C)O)[C@@H](C)O)[C@@H](C)O)C(N)=O) [[N-terminal(C20 diacid-gGlu), des1, 30S, 31G, 33L]mimylin]	3.05
{C20 diacid-γGlu}-ASELSTAALGRLSAELHELATLPRTETGTGTP-NH2 (SMILES CC(C)C[C@H](NC(=O)[C@H](C)NC(=O)[C@H](C)NC(=O)[C@@H](NC(=O)[C@H](CO)NC(=O)[C@H](CC(C)C)NC(=O)[C@H](CCC(=O)O)NC(=O)[C@H](CO)NC(=O)[C@H](C)NC(=O)CC[C@H](NC(=O)CCCCCCCCCCCCCCCCCCC(=O)O)C(=O)O)[C@@H](C)O)C(=O)NCC(=O)N[C@@H](CCCNC(=N)N)C(=O)N[C@@H](CC(C)C)C(=O)N[C@@H](CO)C(=O)N[C@@H](C)C(=O)N[C@@H](CCC(=O)O)C(=O)N[C@@H](CC(C)C)C(=O)N[C@@H](Cc1c[nH]cn1)C(=O)N[C@@H](CCC(=O)O)C(=O)N[C@@H](CC(C)C)C(=O)N[C@@H](C)C(=O)N[C@H](C(=O)N[C@@H](CC(C)C)C(=O)N1CCC[C@H]1C(=O)N[C@@H](CCCNC(=N)N)C(=O)N[C@H](C(=O)N[C@@H](CCC(=O)O)C(=O)N[C@H](C(=O)NCC(=O)N[C@H](C(=O)NCC(=O)N[C@H](C(=O)N1CCC[C@H]1C(N)=O)[C@@H](C)O)[C@@H](C)O)[C@@H](C)O)[C@@H](C)O)[C@@H](C)O) [[N-terminal(C20 diacid-gGlu), des1, 30T, 31G, 32T]mimylin]	0.606
{C20 diacid-γGlu}-ASELSTAALGRLSAELHELATLPRTETGSGSG-NH2 (SMILES CC(C)C[C@H](NC(=O)[C@H](C)NC(=O)[C@H](C)NC(=O)[C@@H](NC(=O)[C@H](CO)NC(=O)[C@H](CC(C)C)NC(=O)[C@H](CCC(=O)O)NC(=O)[C@H](CO)NC(=O)[C@H](C)NC(=O)CC[C@H](NC(=O)CCCCCCCCCCCCCCCCCCC(=O)O)C(=O)O)[C@@H](C)O)C(=O)NCC(=O)N[C@@H](CCCNC(=N)N)C(=O)N[C@@H](CC(C)C)C(=O)N[C@@H](CO)C(=O)N[C@@H](C)C(=O)N[C@@H](CCC(=O)O)C(=O)N[C@@H](CC(C)C)C(=O)N[C@@H](Cc1c[nH]cn1)C(=O)N[C@@H](CCC(=O)O)C(=O)N[C@@H](CC(C)C)C(=O)N[C@@H](C)C(=O)N[C@H](C(=O)N[C@@H](CC(C)C)C(=O)N1CCC[C@H]1C(=O)N[C@@H](CCCNC(=N)N)C(=O)N[C@H](C(=O)N[C@@H](CCC(=O)O)C(=O)N[C@H](C(=O)NCC(=O)N[C@@H](CO)C(=O)NCC(=O)N[C@@H](CO)C(=O)NCC(N)=O)[C@@H](C)O)[C@@H](C)O)[C@@H](C)O) [[N-terminal(C20 diacid-gGlu), des1, 30S, 31G, 33G]mimylin]	4.36
{C20 diacid-γGlu}-ASELSTAALGRLSAELHELATLPRTETGSGSA-NH2 (SMILES CC(C)C[C@H](NC(=O)[C@H](C)NC(=O)[C@H](C)NC(=O)[C@@H](NC(=O)[C@H](CO)NC(=O)[C@H](CC(C)C)NC(=O)[C@H](CCC(=O)O)NC(=O)[C@H](CO)NC(=O)[C@H](C)NC(=O)CC[C@H](NC(=O)CCCCCCCCCCCCCCCCCCC(=O)O)C(=O)O)[C@@H](C)O)C(=O)NCC(=O)N[C@@H](CCCNC(=N)N)C(=O)N[C@@H](CC(C)C)C(=O)N[C@@H](CO)C(=O)N[C@@H](C)C(=O)N[C@@H](CCC(=O)O)C(=O)N[C@@H](CC(C)C)C(=O)N[C@@H](Cc1c[nH]cn1)C(=O)N[C@@H](CCC(=O)O)C(=O)N[C@@H](CC(C)C)C(=O)N[C@@H](C)C(=O)N[C@H](C(=O)N[C@@H](CC(C)C)C(=O)N1CCC[C@H]1C(=O)N[C@@H](CCCNC(=N)N)C(=O)N[C@H](C(=O)N[C@@H](CCC(=O)O)C(=O)N[C@H](C(=O)NCC(=O)N[C@@H](CO)C(=O)NCC(=O)N[C@@H](CO)C(=O)N[C@@H](C)C(N)=O)[C@@H](C)O)[C@@H](C)O)[C@@H](C)O) [[N-terminal(C20 diacid-gGlu), des1, 30S, 31G, 33A]mimylin]	1.89
{C20 diacid-γGlu-AEEA-AEEA-AEEA}-ASELSTAALGRLSAELHELATLPRTETGSGSP-NH2 [[N-terminal(C20 diacid-gGlu-3xOEG), des1, 30S, 31G]mimylin]	0.432
{C20 diacid-γGlu}-ASELSTAALGRLSAELHELATLPRTETGSGSF-NH2 (SMILES CC(C)C[C@H](NC(=O)[C@H](C)NC(=O)[C@H](C)NC(=O)[C@@H](NC(=O)[C@H](CO)NC(=O)[C@H](CC(C)C)NC(=O)[C@H](CCC(=O)O)NC(=O)[C@H](CO)NC(=O)[C@H](C)NC(=O)CC[C@H](NC(=O)CCCCCCCCCCCCCCCCCCC(=O)O)C(=O)O)[C@@H](C)O)C(=O)NCC(=O)N[C@@H](CCCNC(=N)N)C(=O)N[C@@H](CC(C)C)C(=O)N[C@@H](CO)C(=O)N[C@@H](C)C(=O)N[C@@H](CCC(=O)O)C(=O)N[C@@H](CC(C)C)C(=O)N[C@@H](Cc1c[nH]cn1)C(=O)N[C@@H](CCC(=O)O)C(=O)N[C@@H](CC(C)C)C(=O)N[C@@H](C)C(=O)N[C@H](C(=O)N[C@@H](CC(C)C)C(=O)N1CCC[C@H]1C(=O)N[C@@H](CCCNC(=N)N)C(=O)N[C@H](C(=O)N[C@@H](CCC(=O)O)C(=O)N[C@H](C(=O)NCC(=O)N[C@@H](CO)C(=O)NCC(=O)N[C@@H](CO)C(=O)N[C@@H](Cc1ccccc1)C(N)=O)[C@@H](C)O)[C@@H](C)O)[C@@H](C)O) [[N-terminal(C20 diacid-gGlu), des1, 30S, 31G, 33F]mimylin]	1.36
